Reference: patent US9126993B2, “Glucosylceramide synthase inhibitors” (GENZYME CORPORATION, priority 2011, dated 2015)
“Also recorded” adds a separate entry of the source.

How the values were obtained:
Fabry mice [1] = assay: Substrate reduction therapy in Fabry mouse model: Gb3 and lyso-Gb3 levels; format: in vivo; conditions: Fabry mice, in diet for 4 months starting at 8 months old; GZ 452 60 mg/kg/day, GZ 638 300 mg/kg/day
Method: In the following experiments, mice dosed with GCS inhibitors at either ˜60 mg/kg/day of (S)-Quinuclidin-3-yl(2-(2-(4-fluorophenyl)thiazol-4-yl)propan-2-yl)carbamate (S)-2-hydroxysuccinate salt (hereinafter “GZ 452”) or ˜300 mg/kg/day of (1R,2R)-Octanoic acid[2-(2′,3′-dihydro-benzo[1,4] dioxin-6′-yl)-2-hydroxy-1-pyrrolidin-1-ylmethyl-ethyl]-amide-L-tartaric acid salt (hereinafter “GZ 638”) as a component of the pelleted food diet provided ad libitum. Lipid analysis was by ESI/MS as described in Marshall et al., PLoS ONE 5:e15033 (2010). As discussed in further detail below, treatment started when the mice were 3, 8 or 12 months of age to test the efficacy at different disease severities. Blood and urine was collected monthly and periodic tissue harvests provided materials to evaluate efficacy of the therapy (Gb3 and lyso-Gb3 levels). […] As further discussed below, the efficacy of SMT was affected by the age of the mice at the start of treatment. Generally, the older the mouse, the higher the levels of Gb3 stored and thus a longer period of treatment was required in order to affect similar therapeutic benefit (see FIG. 4). The experiments and results are described further below.
In this experiment, Fabry mice were treated with GCS inhibitors in their diet for 4 months starting at 8 months old. […] Age-matched wild-type levels (WT) are also shown. […]

Fabry mice [2] = assay: Thermal nociceptive response (55° C. hotplate) in Fabry mice; format: in vivo, mouse; conditions: 10 month old Fabry mice after 7 months of treatment
Method: Three month old Fabry mice were treated with GZ 452 in their diet (SRT), αgal once every 2 months (ERT), or a combination of the 2 treatments (E+S), as described above. […]

Fabry mice [3] = assay: Combination therapy (ERT + SRT) in Fabry mouse model: plasma and urine Gb3 and lyso-Gb3; format: in vivo; conditions: Fabry mice treated 2 months from 3 months of age; ERT 1 mg/kg iv every 2 months; SRT GZ 452 ~60 mg/kg/day in diet
Source text: Fabry mice were used to test the in vivo efficacy of combining enzyme replacement therapy with small molecule therapy in a concurrent treatment format. The study was designed to evaluate whether substrate inhibition (i.e. “substrate reduction therapy”) using the GZ 452 compound could reduce re-accumulation of the storage material Gb3 and lyso-Gb3. The study protocol called for three distinct treatment groups of 3 month old male Fabry mice (FIG. 6A). The first group received intravenous injections of alpha-galactosidase A enzyme (ERT) at 1 mg/kg to reduce Gb3 levels and was repeated every 2 months. The second group received the same enzyme injections as group 1, but also were dosed with GZ 452 at ˜60 mg/kg/day as a component of the pelleted diet. The third group received only the daily dosing of GZ 452 in their diet. A fourth group received no treatment to serve as vehicle controls and a fifth group of wild-type animals provided ‘normal’ Gb3 and lyso-Gb3 values. Monthly urine and blood collections and three monthly tissue harvests provide materials to evaluate relative efficacy of the therapies (FIG. 6A).
After 2 months (mice were 5 months old), plasma (FIG. 6B, panels A and C) and urine (FIG. 6B, panels B & D) were analyzed for Gb3 (FIG. 6B, panels A and B) and lyso-Gb3 (FIG. 6B, panels C and D). […] SMT therapy alone or in combination with ERT was also capable of affecting (reducing accumulation) of lyso-Gb3.

K14 mice = conditions: neonatal (P1-P3) intracerebroventricular injections, previous experiments (Cabrera-Salazar et al. 2010); cited from earlier work

Molecule: (1R,2R)-Octanoic acid[2-(2′,3′-dihydro-benzo[1,4] dioxin-6′-yl)-2-hydroxy-1-pyrrolidin-1-ylmethyl-ethyl]-amide-L-tartaric acid salt [GZ 638, reference compound]
- Gb3 in visceral tissue (kidney, heart) relative to the starting levels (Fabry mice [1]): effective at inhibiting further accumulation of tissue Gb3

B1: ERT: alpha-galactosidase A enzyme (ERT), intravenous injections at 1 mg/kg every 2 months (protein, UniProt P06280 32-429, looked up)
Alpha-galactosidase A: LDNGLARTPTMGWLHWERFMCNLDCQEEPDSCISEKLFMEMAELMVSEGWKDAGYEYLCIDDCWMAPQRDSEGRLQADPQRFPHGIRQLANYVHSKGLKLGIYADVGNKTCAGFPGSFGYYDIDAQTFADWGVDLLKFDGCYCDSLENLADGYKHMSLALNRTGRSIVYSCEWPLYMWPFQKPNYTEIRQYCNHWRNFADIDDSWKSIKSILDWTSFNQERIVDVAGPGGWNDPDMLVIGNFGLSWNQQVTQMALWAIMAAPLFMSNDLRHISPQAKALLQDKDVIAINQDPLGKQGYQLRQGDNFEVWERPLSGLAWAVAMINRQEIGGPRSYTIAVASLGKGVACNPACFITQLLPVKRKLGFYEWTSRLRSHINPTGTVLLQLENTMQMSLKDLL
- thermal nociceptive response time (latency) vs untreated (Fabry mice [2]): not significantly different to the untreated group
- plasma Gb3 level (Fabry mice [3]): to a greater extent than SMT; also recorded: reduced
- plasma lyso-Gb3 level (Fabry mice [3]): reduced
- urine Gb3 level (Fabry mice [3]): unaffected

B2: GC: Recombinant human glucocerebrosidase (rhGC), reformulated for ICV administration (protein, UniProt P04062 40-536, looked up)
Lysosomal acid …: ARPCIPKSFGYSSVVCVCNATYCDSFDPPTFPALGTFSRYESTRSGRRMELSMGPIQANHTGTGLLLTLQPEQKFQKVKGFGGAMTDAAALNILALSPPAQNLLLKSYFSEEGIGYNIIRVPMASCDFSIRTYTYADTPDDFQLHNFSLPEEDTKLKIPLIHRALQLAQRPVSLLASPWTSPTWLKTNGAVNGKGSLKGQPGDIYHQTWARYFVKFLDAYAEHKLQFWAVTAENEPSAGLLSGYPFQCLGFTPEHQRDFIARDLGPTLANSTHHNVRLLMLDDQRLLLPHWAKVVLTDPEAAKYVHGIAVHWYLDFLAPAKATLGETHRLFPNTMLFASEACVGSKFWEQSVRLGSWDRGMQYSHSIITNLLYHVVGWTDWNLALNPEGGPNWVRNFVDSPIIVDITKDTFYKQPMFYHLGHFSKFIPEGSQRVGLVASQKNDLDAVALMHPDGSAVVVVLNRSSKDVPLTIKDPAVGFLETISPGYSIHTYLWRRQ
- median survival (K14 mice): 23 days
